Measurements: paper PMC5134428

Biological target: trypsin from porcine pancreas (porcine) (UniProt P00761)
Chain of UniProt P00761 (P00761 9-231): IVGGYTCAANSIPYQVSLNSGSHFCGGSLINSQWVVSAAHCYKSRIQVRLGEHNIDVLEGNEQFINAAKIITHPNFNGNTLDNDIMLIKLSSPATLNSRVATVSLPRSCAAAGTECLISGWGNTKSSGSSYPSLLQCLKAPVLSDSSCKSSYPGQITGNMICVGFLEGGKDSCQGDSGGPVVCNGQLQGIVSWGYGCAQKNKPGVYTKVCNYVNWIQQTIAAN

IC50 of inhibition of trypsin activity (cleavage of the Arg6-Cys peptide, read by fluorescence of dC12-AgNCs-peptide/GO at 635 nm; 37 °C, 20 min, 2.0 mM phosphate buffer pH 7.4): 3.6 ng∙mL^−1
B1: Bowman Birk inhibitor (BBI) from soybean (natural protein)
chain: DDESSKPCCDQCACTKSNPPQCRCSDMRLNSCHSACKSCICALSYPAQCFCVDITDFCYEPCKPSEDDKEN
